Source: the supplement of paper PMC12042874
± gives the uncertainty stated by the source.

Experiment: amyloid nucleation score (Sup35N fusion, yeast selection) (log enrichment); library NNK1; higher = more nucleation; inactive = no reads after selection
Outline: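 On medium lacking adenine and uracil, psi-negative yeast expressing peptides of 20 random codons fused to Sup35N were grown 7 days at 30°C after a 24-hour induction with 100 μM copper sulfate. Illumina sequencing of input and output plasmid inserts gave the reads, and sequences under 100 input reads were excluded. The nucleation score is the DiMSum log enrichment of output over input reads, centred on the mode score of non-aggregating sequences.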

Substance	amyloid nucleation score
LKTGGSPNLVANYMYDRCAG	0.581 ± 0.38
LKTRALASGWEAECADRGGV	-0.056 ± 0.64
LKVRLNESIICYAMRVKHIC	0.345 ± 0.36
LKYMYHYVSMKVFVLGISMR	0.005 ± 1.7
LLAFYSVTFVSRWILQCYML	-0.498 ± 0.36
LLAGYCQSYIQLELSNSEHV	-0.241 ± 0.84
LLDRRVGKLGLDCMLLDLCQ	0.752 ± 0.42
LLFSPIFLDSGPHTLWLYMF	0.491 ± 0.87
LLGASLNVKPESDFLLPAKR	0.175 ± 0.41
LLGIEFTSDLLPIPSISPNE	0.239 ± 0.63
LLKENWFNCSLWHDIVGISM	-0.596 ± 0.59
LLKWLVDAW	0.493 ± 0.25
LLLNTLLWSL	-1.83 ± 2.7
LLLSILRWDEDMMLNFW	1.21 ± 0.43
LLLTHNLVNADDSVDSMQHK	0.086 ± 0.24
LLMVREDRRRFRSFGS	0.773 ± 0.76
LLNEDYTGHSCDPEGEDTR	0.589 ± 0.52
LLNQFLTRSASYTRGTESID	0.295 ± 0.24
LLRLRISEIGSRLIKVWKSW	0.155 ± 0.35
LLRVAFLKRYFSTIFCVLLR	-0.716 ± 0.53
LLSMLRCYWVSRLFV	-0.079 ± 0.65
LLVNFSTSRLSLYMFIMIFS	-0.779 ± 0.39

Substance	amyloid nucleation score
LLWEPRKFFESNWLSIQSAK	-0.668 ± 1.7
LLYLCYIRCI	0.952 ± 0.65
LLYSERTIIPVDRYT	-0.686 ± 0.48
LMDIGPANEKFN	-1.18 ± 1.4
LMFKGEYCWLVIWQGLTWGV	0.278 ± 0.52
LMFLGWSNRKMTSHSIMTVL	0.293 ± 1
LMGNEL	-0.396 ± 0.4
LMIRILMVAQNSVLTVFW	-0.324 ± 0.4
LMLTARPVMFVLLCWWFRSS	0.246 ± 0.43
LMNCVAYAIVEVTCVSCMES	4.68 ± 0.082
LMRHYSHMFYIRHAVLLTNP	0.255 ± 0.36
LMSASNLNAVSKQCIRLRRC	1.48 ± 0.55
LMTPEKVNEGATDRLRLFRN	-0.323 ± 0.68
LNASGIVVCFYSSDNTCTYE	4.49 ± 0.089
LNCLFLFSISAFRVLASHIM	0.448 ± 0.42
LNDGTGDQ	-0.138 ± 0.37
LNFFVPA	-1.38 ± 2.4
LNHLVSPKALQN	0.017 ± 0.4
LNHRIYNLLHVILWVKQWMK	0.164 ± 1.5
LNICCEEYQDRYTTDNFLLL	0.583 ± 0.57
LNIGTW	0.185 ± 0.28
LNISMFHSNSSHTTEEVTHH	1.32 ± 0.19

Substance	amyloid nucleation score
LNNHETFFGFVDVSGSAIS	0.272 ± 0.26
LNNLWNLGLTGLQGGNMYKI	inactive
LNRHYFCVGIPYGPYSQRYL	0.51 ± 0.75
LNRSTDAFWNKIRTG	1.01 ± 0.49
LNRTRCLWL	0.877 ± 0.58
LNSDCCPNSFDKHFLSFLCM	0.433 ± 0.81
LNSVVTVKWVLKARSLVVRC	1.16 ± 0.88
LNTCLFISDTAVFIMASYMV	3.06 ± 0.45
LPDCINNVQNGYSKLSEGLS	0.792 ± 1
LPGDFYGSYRN	inactive
LPGFWPFMSDTPLGHQIVA	-1.07 ± 1.6
LPSVESLHRTTSCVYF	-0.561 ± 1.2
LPVHGMFWSVR	-0.157 ± 0.78
LPWGRTAFENFFVTMFFSKC	-0.994 ± 1.5
LQLWLMDGSSRGRWV	0.12 ± 0.64
LQSTFFFYGGCKRVWSMMYH	4.45 ± 0.12
LRAHGAYRYQWEACCHNLG	-0.138 ± 0.36
LRAWMSVASDNGLLMFCRNH	-0.324 ± 0.46
LRCFYEYGFHKRTKVDSIDT	inactive
LRCKMYSMWKTSYFTVMLGG	-0.261 ± 0.44
LRDTFPVLLAILCMNIINNC	-0.14 ± 0.29
LRFIRRYIESHITFVRKLLK	inactive

Substance	amyloid nucleation score
LRITNAPKLVYVSAQEVNSQ	1.47 ± 0.25
LRKWSERGPWP	0.048 ± 0.46
LRLMLCFMFYAWTALCKPRD	0.31 ± 0.23
LRRLEGLMSLGSFKFSPYGP	0.227 ± 1.2
LRSSEYWSLMEVDLVMDSLP	0.629 ± 0.97
LRSVSGCIKFAYGDSCMSLK	inactive
LRTARNMGYICSIVSFNNLN	5.13 ± 0.055
LRVRFKSWDLSITLGVQ	1.26 ± 0.9
LRWMESLRLNARSFKDTLLC	-0.33 ± 1.7
LSAEFGSMLRLLCH	inactive
LSAWPTIEEMVPAHMKTTHA	0.526 ± 0.54
LSCKSVVPLSNSWYAIVLRL	1.19 ± 0.29
LSCWTCNRFYRGGLLVCMYP	-0.713 ± 0.46
LSDLDIRKQLVYMRSIRVGT	-0.339 ± 0.94
LSDRVFSVTTQGPCDSIFLS	-0.792 ± 0.61
LSFNSTSPEIIRTVVMAWC	-1.54 ± 1.7
LSGLRNVLPLLTMYASIMKV	0.688 ± 0.7
LSHLLMRCGCIRLFVISMRE	0.448 ± 0.49
LSIGFGNPVAS	-0.312 ± 0.29
LSIILRNVMCNIFSSNLITH	0.973 ± 0.16
